For one substance, B max (sites/cell) and Kd results are on record in US6699837.

Experiment [1] deals with HGF receptor (c-met) on human cell lines of the central nervous system (T98G glioblastoma, GOTO and SCCH-26 neuroblastoma) (human) (UniProt P08581). Kind of experiment: ^125I-HGF saturation binding on SCCH-26 cells, Scatchard analysis.
For experiment [2] the target is unchanged. Kind of experiment: ^125I-HGF saturation binding on GOTO cells, Scatchard analysis.
Experiment [3] has the same target. Kind of experiment: ^125I-HGF binding on T98G, GOTO and SCCH-26 cells, Scatchard analysis (range told of the three cell lines).
Experiment [4] shares this target. Nature of the experiment: ^125I-HGF saturation binding on T98G cells, Scatchard analysis.

As usually defined, the Kd is the constant that tells how readily two partners part at equilibrium. Lower therefore signals higher affinity.

Sequence of Human recombinant HGF (hepatocyte growth factor), radioiodinated (^125I-HGF) (P14210 32-728 limits assumed): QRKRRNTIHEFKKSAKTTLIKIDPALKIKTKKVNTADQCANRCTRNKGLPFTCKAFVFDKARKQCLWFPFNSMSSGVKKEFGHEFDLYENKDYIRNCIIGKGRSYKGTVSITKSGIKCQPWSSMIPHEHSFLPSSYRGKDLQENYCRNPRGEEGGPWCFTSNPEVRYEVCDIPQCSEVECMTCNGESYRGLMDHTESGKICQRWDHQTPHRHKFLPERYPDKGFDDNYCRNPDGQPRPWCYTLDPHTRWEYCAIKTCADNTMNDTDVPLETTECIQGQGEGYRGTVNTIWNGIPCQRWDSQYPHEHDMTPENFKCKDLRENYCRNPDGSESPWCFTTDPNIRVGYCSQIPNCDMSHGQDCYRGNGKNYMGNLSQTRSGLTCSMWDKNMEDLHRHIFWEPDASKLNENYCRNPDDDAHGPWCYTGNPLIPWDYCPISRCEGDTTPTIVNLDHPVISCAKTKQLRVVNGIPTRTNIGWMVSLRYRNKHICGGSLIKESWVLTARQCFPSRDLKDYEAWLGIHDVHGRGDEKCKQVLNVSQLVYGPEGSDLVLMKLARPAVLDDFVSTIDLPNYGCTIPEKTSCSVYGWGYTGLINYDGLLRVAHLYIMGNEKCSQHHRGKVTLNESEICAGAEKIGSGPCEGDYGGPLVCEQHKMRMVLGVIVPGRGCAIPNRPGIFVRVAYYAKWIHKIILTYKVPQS

Turning to “Human recombinant HGF (hepatocyte growth factor), radioiodinated (^125I-HGF) (from UniProt P14210 32-728) (ligand)”, the figures for the B max (sites/cell) in experiment [1], in experiment [2] and in experiment [4] were 60 sites/cell, 120 sites/cell and 540 sites/cell, respectively. In addition, the Kd is 0.02 nM in experiment [1], 0.03 nM in experiment [2], 0.03 to 0.04 nM in experiment [3] and 0.031 nM in experiment [4].
